In EP3088890B1 (Chugai Seiyaku Kabushiki Kaisha, dated 2020):

B1: GT607 antibody (antibody, IgG1, V domains shown)
VH: EVQLVESGGDVVRPGGSLKLSCAASGFTFSSYGMSWVRQLPDKRLEWVASVGNGGSYRYYPENLKGRFTISRDNTKNTLYLQISGLKSEDTAIYYCARRGAFPYFDVWGAGTTVTVSS
VL: QIVLTQSPAIMSASPGEKVTLACSASSSVTYMHWYQQKSGTSPKRWIYETSKLASGVPPRFSGSGSGTSYSLTISTMEAEDAATYYCQQWSSNPLTFGAGTKLELKR
B2: GT114 antibody (antibody, IgG1, V domains shown)
VH: DVQLQESGPGLVKPSQSLSLTCTVTGYSITSDSAWNWIRQFPGNKLEWMAYIMYSGITSYNPSLKSRISITRDTAKNQFFLQLNSVTTEDSATYYCSRGYWYFDVWGAGTTVTVSS
VL: QIVLTQSPAIMSASLGEEITLTCSASSSVSYMHWYQQKSGTSPKLLIYSTSILASGVPSRFSGSGSGTFYSLTISSVEAEDAADYYCLQWITYRTFGGGTKLEIKR

Assays:
[1] = molecular target: T1, AW2, C-terminally His-tagged recombinant product of positions 1 to 196 of GPC3 (human, UniProt P51654 25-196); assay: Western blot, pellets of CHO cells expressing the product
T1 construct: Expressed in CHO cells, cell pellets used in Western blot; The range is as printed and starts at position 1; also called AW2 (1-196); not shown: C-terminal His tag

[2] = molecular target: T2, AW3, C-terminally His-tagged recombinant product of positions 1 to 218 of GPC3 (human, UniProt P51654 25-218); assay: as above
T2 construct: Expressed in CHO cells, cell pellets used in Western blot; The range is as printed and starts at position 1; not shown: C-terminal His tag

[3] = molecular target: T3, GPC3 peptide 401-430 (SEQ ID NO: 21) (human); assay: peptide ELISA, peptide on plate
T3 construct: Synthetic 30-residue peptide of GPC3
T3 peptide: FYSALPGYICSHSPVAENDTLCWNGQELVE

[4] = molecular target: T4, GPC3 peptide 181-210 (SEQ ID NO: 10) (human); assay: peptide ELISA, peptide on plate
T4 construct: Synthetic 30-residue peptide of GPC3
T4 peptide: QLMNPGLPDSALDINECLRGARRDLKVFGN

[5] = molecular target: T5, GPC3 peptide 441-470 (SEQ ID NO: 23) (human); assay: peptide ELISA, peptide on plate
T5 construct: Synthetic 30-residue peptide of GPC3
T5 peptide: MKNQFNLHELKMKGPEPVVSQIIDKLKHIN

[6] = molecular target: T6, GPC3 peptide 281-310 (SEQ ID NO: 15) (human); assay: peptide ELISA, peptide on plate
T6 construct: Synthetic 30-residue peptide of GPC3
T6 peptide: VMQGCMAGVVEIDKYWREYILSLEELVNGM

[7] = molecular target: T7, GPC3 peptide 141-170 (SEQ ID NO: 8) (human); assay: peptide ELISA, peptide on plate
T7 construct: Synthetic 30-residue peptide of GPC3
T7 peptide: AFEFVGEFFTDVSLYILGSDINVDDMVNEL

[8] = molecular target: T8, GPC3 peptide 21-50 (SEQ ID NO: 2) (human); assay: peptide ELISA, peptide on plate
T8 construct: Synthetic 30-residue peptide of GPC3
T8 peptide: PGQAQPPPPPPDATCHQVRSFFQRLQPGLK

[9] = molecular target: T9, GPC3 peptide 161-190 (SEQ ID NO: 9) (human); assay: peptide ELISA, peptide on plate
T9 construct: Synthetic 30-residue peptide of GPC3
T9 peptide: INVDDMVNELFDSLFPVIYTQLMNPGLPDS

[10] = molecular target: T10, GPC3 peptide 551-580 (SEQ ID NO: 29) (human); assay: peptide ELISA, peptide on plate
T10 construct: Synthetic 30-residue peptide of GPC3
T10 peptide: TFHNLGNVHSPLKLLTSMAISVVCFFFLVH

[11] = molecular target: T11, GPC3 peptide 481-510 (SEQ ID NO: 25) (human); assay: peptide ELISA, peptide on plate
T11 construct: Synthetic 30-residue peptide of GPC3
T11 peptide: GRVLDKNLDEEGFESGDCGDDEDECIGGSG

[12] = molecular target: T12, GPC3 peptide 121-150 (SEQ ID NO: 7) (human); assay: peptide ELISA, peptide on plate
T12 construct: Synthetic 30-residue peptide of GPC3
T12 peptide: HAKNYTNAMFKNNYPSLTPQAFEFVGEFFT

[13] = molecular target: T13, GPC3 peptide 101-130 (SEQ ID NO: 6) (human); assay: peptide ELISA, peptide on plate
T13 construct: Synthetic 30-residue peptide of GPC3
T13 peptide: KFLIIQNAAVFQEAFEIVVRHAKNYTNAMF

[14] = molecular target: T14, GPC3 peptide 501-530 (SEQ ID NO: 26) (human); assay: peptide ELISA, peptide on plate
T14 construct: Synthetic 30-residue peptide of GPC3
T14 peptide: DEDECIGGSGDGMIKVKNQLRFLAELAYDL

[15] = molecular target: T15, GPC3 peptide 461-490 (SEQ ID NO: 24) (human); assay: peptide ELISA, peptide on plate
T15 construct: Synthetic 30-residue peptide of GPC3
T15 peptide: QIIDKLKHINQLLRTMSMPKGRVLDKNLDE

[16] = molecular target: T16, GPC3 peptide 61-90 (SEQ ID NO: 4) (human); assay: peptide ELISA, peptide on plate
T16 construct: Synthetic 30-residue peptide of GPC3
T16 peptide: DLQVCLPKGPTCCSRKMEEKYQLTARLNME

[17] = molecular target: T17, GPC3 peptide 1-30 (SEQ ID NO: 1) (human); assay: peptide ELISA, peptide on plate
T17 construct: Synthetic 30-residue peptide of GPC3
T17 peptide: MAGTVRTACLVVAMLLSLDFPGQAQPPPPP

[18] = molecular target: T18, GPC3 peptide 41-70 (SEQ ID NO: 3) (human); assay: peptide ELISA, peptide on plate
T18 construct: Synthetic 30-residue peptide of GPC3
T18 peptide: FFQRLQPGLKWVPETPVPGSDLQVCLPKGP

[19] = molecular target: T19, GPC3 peptide 261-290 (SEQ ID NO: 14) (human); assay: peptide ELISA, peptide on plate
T19 construct: Synthetic 30-residue peptide of GPC3
T19 peptide: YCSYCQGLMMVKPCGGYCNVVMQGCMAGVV

[20] = molecular target: T20, GPC3 peptide 381-410 (SEQ ID NO: 20) (human); assay: peptide ELISA, peptide on plate
T20 construct: Synthetic 30-residue peptide of GPC3
T20 peptide: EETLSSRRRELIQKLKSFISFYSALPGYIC

[21] = molecular target: T21, GPC3 peptide 321-350 (SEQ ID NO: 17) (human); assay: peptide ELISA, peptide on plate
T21 construct: Synthetic 30-residue peptide of GPC3
T21 peptide: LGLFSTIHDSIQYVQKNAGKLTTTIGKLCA

[22] = molecular target: T22, GPC3 peptide 421-450 (SEQ ID NO: 22) (human); assay: peptide ELISA, peptide on plate
T22 construct: Synthetic 30-residue peptide of GPC3
T22 peptide: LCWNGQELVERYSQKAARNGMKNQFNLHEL

[23] = molecular target: T23, GPC3 peptide 541-570 (SEQ ID NO: 28) (human); assay: peptide ELISA, peptide on plate
T23 construct: Synthetic 30-residue peptide of GPC3
T23 peptide: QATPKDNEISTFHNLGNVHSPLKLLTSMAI

[24] = molecular target: T24, GPC3 peptide 221-250 (SEQ ID NO: 12) (human); assay: peptide ELISA, peptide on plate
T24 construct: Synthetic 30-residue peptide of GPC3
T24 peptide: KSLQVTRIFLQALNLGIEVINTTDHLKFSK

[25] = molecular target: T25, GPC3 peptide 81-110 (SEQ ID NO: 5) (human); assay: peptide ELISA, peptide on plate
T25 construct: Synthetic 30-residue peptide of GPC3
T25 peptide: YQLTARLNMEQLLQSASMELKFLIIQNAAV

[26] = molecular target: T26, GPC3 peptide 521-550 (SEQ ID NO: 27) (human); assay: peptide ELISA, peptide on plate
T26 construct: Synthetic 30-residue peptide of GPC3
T26 peptide: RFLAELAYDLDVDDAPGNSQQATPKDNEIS

[27] = molecular target: T27, GPC3 peptide 341-370 (SEQ ID NO: 18) (human); assay: peptide ELISA, peptide on plate
T27 construct: Synthetic 30-residue peptide of GPC3
T27 peptide: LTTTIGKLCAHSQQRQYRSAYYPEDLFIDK

[28] = molecular target: T28, GPC3 peptide 241-270 (SEQ ID NO: 13) (human); assay: peptide ELISA, peptide on plate
T28 construct: Synthetic 30-residue peptide of GPC3
T28 peptide: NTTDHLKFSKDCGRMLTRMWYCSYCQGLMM

[29] = molecular target: T29, GPC3 peptide 361-390 (SEQ ID NO: 19) (human); assay: peptide ELISA, peptide on plate
T29 construct: Synthetic 30-residue peptide of GPC3
T29 peptide: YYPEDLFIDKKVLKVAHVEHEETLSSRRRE

T1 sequence (P51654 25-196): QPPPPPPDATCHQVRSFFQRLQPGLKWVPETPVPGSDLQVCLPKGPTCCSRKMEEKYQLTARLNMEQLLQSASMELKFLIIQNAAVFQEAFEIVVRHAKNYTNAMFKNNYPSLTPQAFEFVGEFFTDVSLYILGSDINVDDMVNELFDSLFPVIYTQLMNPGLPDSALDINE
T2 sequence (P51654 25-218): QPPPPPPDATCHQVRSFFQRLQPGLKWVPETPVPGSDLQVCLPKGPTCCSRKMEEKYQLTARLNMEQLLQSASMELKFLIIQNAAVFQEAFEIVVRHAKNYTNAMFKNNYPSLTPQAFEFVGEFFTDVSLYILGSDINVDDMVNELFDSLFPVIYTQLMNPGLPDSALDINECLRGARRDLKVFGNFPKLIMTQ

| Binder | binding result [1] | binding result [2] | binding result [3] | binding result [4] | binding result [5] | binding result [6] | binding result [7] | binding result [8] | binding result [9] | binding result [10] | binding result [11] | binding result [12] | binding result [13] | binding result [14] | binding result [15] | binding result [16] | binding result [17] | binding result [18] | binding result [19] | binding result [20] | also measured |
| --- | --- | --- | --- | --- | --- | --- | --- | --- | --- | --- | --- | --- | --- | --- | --- | --- | --- | --- | --- | --- | --- |
| B1 | no binding | no binding | no binding (tested: 2 µg/mL) | no binding (tested: 2 µg/mL) | no binding (tested: 2 µg/mL) | no binding (tested: 2 µg/mL) | no binding (tested: 2 µg/mL) | no binding (tested: 2 µg/mL) | no binding (tested: 2 µg/mL) | no binding (tested: 2 µg/mL) | no binding (tested: 2 µg/mL) | no binding (tested: 2 µg/mL) | no binding (tested: 2 µg/mL) | no binding (tested: 2 µg/mL) | no binding (tested: 2 µg/mL) | no binding (tested: 2 µg/mL) | no binding (tested: 2 µg/mL) | no binding (tested: 2 µg/mL) | no binding (tested: 2 µg/mL) | no binding (tested: 2 µg/mL) | binding result [21]: no binding (tested: 2 µg/mL); binding result [22]: no binding (tested: 2 µg/mL); binding result [23]: no binding (tested: 2 µg/mL); binding result [24]: no binding (tested: 2 µg/mL); binding result [25]: no binding (tested: 2 µg/mL); binding result [26]: no binding (tested: 2 µg/mL); binding result [27]: no binding (tested: 2 µg/mL); binding result [28]: no binding (tested: 2 µg/mL); binding result [29]: no binding (tested: 2 µg/mL) |
| B2 | no binding | no binding | no binding (tested: 2 µg/mL) | no binding (tested: 2 µg/mL) | no binding (tested: 2 µg/mL) | no binding (tested: 2 µg/mL) | no binding (tested: 2 µg/mL) | no binding (tested: 2 µg/mL) | no binding (tested: 2 µg/mL) | no binding (tested: 2 µg/mL) | no binding (tested: 2 µg/mL) | no binding (tested: 2 µg/mL) | no binding (tested: 2 µg/mL) | no binding (tested: 2 µg/mL) | no binding (tested: 2 µg/mL) | no binding (tested: 2 µg/mL) | no binding (tested: 2 µg/mL) | no binding (tested: 2 µg/mL) | no binding (tested: 2 µg/mL) | no binding (tested: 2 µg/mL) | binding result [21]: no binding (tested: 2 µg/mL); binding result [22]: no binding (tested: 2 µg/mL); binding result [23]: no binding (tested: 2 µg/mL); binding result [24]: no binding (tested: 2 µg/mL); binding result [25]: no binding (tested: 2 µg/mL); binding result [26]: no binding (tested: 2 µg/mL); binding result [27]: no binding (tested: 2 µg/mL); binding result [28]: no binding (tested: 2 µg/mL); binding result [29]: no binding (tested: 2 µg/mL) |
